Where a chain is given by its changes, count along the chain named.

As a reminder, the Kd is the free concentration of one partner at which half of the binding sites on the other are occupied at equilibrium, for simple one-to-one binding. The low end stands for tighter binding, the high end for weaker binding.

For assay [1], the target named is T1, hPHD-HD1 complex (hPygo1 PHD 333-402 with hBCL9 HD1) (human, UniProt Q9Y3Y4 333-402; O00512 177-205).
T1 construct: PHD finger of human Pygo1, amino acids 333-402; also called binary complex; human PHD-HD1 complex; source: E. coli BL21-CodonPlus(DE3)-RIL, coexpressed from a bicistronic vector, purified as a complex; not shown: GST, N-terminal, cleaved; MBP, N-terminal, cleaved
T1 sequence (looked up) 1: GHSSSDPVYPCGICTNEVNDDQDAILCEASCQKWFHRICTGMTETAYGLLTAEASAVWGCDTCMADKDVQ
T1 sequence (looked up) 2: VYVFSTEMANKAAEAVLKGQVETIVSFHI
In words: ITC; protein dialysed into 100 mM NaCl, 25 mM Tris-HCl (pH 8.0), 10 uM ZnCl2, 2 mM beta-mercaptoethanol; histone peptides with free PHD or PHD-HD1 complex; one-site model. The settings on record: both partners purified. A general note: In ITC the heat of successive injections is recorded.

The target of another assay is T2, hPygo1 PHD finger E349A (human, UniProt Q9Y3Y4 333-402, E349A).
T2 construct: PHD finger of human Pygo1 with E349A; source: E. coli, purified; not shown: GST, N-terminal, cleaved
T2 sequence (looked up): T1 sequence (looked up) 1 with E17A
The assay is described as above. The settings on record: both partners purified.

B1: H3R2me2aK4me2 18-mer histone H3 tail peptide (peptide, UniProt P68431 2-19, looked up)
peptide: ARTKQTARKSTGGKAPRK
modifications: asymmetric dimethyl-arginine at R2 (R2me2a); dimethyl-lysine at K4
notes: histone H3 tail, 18-mer; Only the first seven residues are modelled in the structure; also called 18-mer histone H3 tail carrying both K4me2 and asymmetrically methylated R2 (R2me2a)
B1 displayed a dissociation constant Kd in assay [1] of 2.1 µM.

B2: H3K4me3 15-mer histone H3 tail peptide (peptide, UniProt P68431 2-16, looked up)
peptide: ARTKQTARKSTGGKA
modifications: trimethyl-lysine at K4
notes: histone H3 tail, 15-mer
Regarding B2, the Kd in the assay with hPygo1 PHD finger E349A amounted to 22 µM.

B3: H3K4me2 9-mer histone H3 tail peptide (peptide, UniProt P68431 2-10, looked up)
peptide: ARTKQTARK
modifications: dimethyl-lysine at K4
notes: histone H3 tail, 9-mer; the limits follow from the truncated form 'spanning R2-K9 (without A1)'; Only the first seven residues are modelled in the structure; also called 9-mer H3K4me2 peptide
On to B3, for which binding in assay [1] was put at a Kd of 11 µM.
